According to doi:10.1101/2024.06.26.600769 (bioRxiv, 2024):
No end group written: not given here.

Tests used:
[1] = target: T1, E. coli β-clamp (bacterial DNA sliding clamp), His6-tagged (E. coli, UniProt P0A988 1-366); experiment: NMR titration
[2] = target: T1, E. coli β-clamp (bacterial DNA sliding …); experiment: ITC

T1 sequence (P0A988 whole entry): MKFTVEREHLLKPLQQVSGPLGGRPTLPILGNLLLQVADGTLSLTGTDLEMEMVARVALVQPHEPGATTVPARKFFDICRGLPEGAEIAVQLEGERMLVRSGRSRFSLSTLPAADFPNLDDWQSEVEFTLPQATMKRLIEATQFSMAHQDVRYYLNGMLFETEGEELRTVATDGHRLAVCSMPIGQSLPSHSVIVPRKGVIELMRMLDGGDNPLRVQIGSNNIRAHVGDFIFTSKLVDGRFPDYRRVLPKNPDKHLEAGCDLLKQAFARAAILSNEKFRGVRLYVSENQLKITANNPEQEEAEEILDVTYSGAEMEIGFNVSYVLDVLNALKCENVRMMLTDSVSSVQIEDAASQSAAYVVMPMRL

GWLDPQMERQLVLGL [pol IV* peptide, 15-mer of the polymerase IV C-terminus with an N-terminal Trp (GWLDPQMERQLVLGL)]: binds [1].

GWGEAPVCAQPLLIPL (not fully specified (C-terminus); printed as GWGEAPVCAQPLLIPL-NH2): binds [1].

DWRGLIGSEQVELEFD: binds [2].

GWATQVDGTQMSLLSV (not fully specified (C-terminus); printed as GWATQVDGTQMSLLSV-NH2): binds [1].
